Tested on: AncSZ
Test: phosphorylation enrichment, bacterial display (enrichment ratio); higher = better substrate or ligand; peptides without Tyr show the background
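Note: 11-residue human phosphosite peptides and single-mutation variants displayed on the E. coli surface, counted by deep sequencing, each peptide's frequency after selection divided by its frequency in the unselected input library; frequency after pTyr selection over input frequency; kinase dosed for 20-30% of maximal phosphorylation in three min.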

Sequence	phosphorylation enrichment
FDSPFYQDSLP [TSC1_Y508_R509Q]	0.848
HKANEYYPVVL [ADAMTS18_Y764]	2.86
GVMLLYYGRYN [ADGRD1_Y85_T82M]	1.53
SSSNPYSTVTM [ACTN2_Y599]	0.62
AEQEEYSAMRD [NRAS_Y64_G60E]	1.4
GKTQQYECKWF [BCR_Y751_D752E_YF]	0.818
RELGEYALAEF [ALDH1A3_Y492_YF]	1.28
TYGQVYKGPHV [TNIK_Y40_R43P]	0.68
RLGDLYKEEMR [VIM_Y150_E151K]	1.08
EEKKKYYDAKI [CASP5_Y103_T106A]	0.626
PTDSVYVMPTV [MYO7A_Y1668]	2.78
NQDRTYYESVR [SPEN_Y632]	0.897
FSTDCYRVGGH [NTRK2_Y707_Y706C_YF]	1.08
KDQPDYKFQPR [SOX9_Y172_H169Q_YF]	0.666
KSVLVYRNGDP [DCDC2_Y22]	0.539
FTHSDYQFSQR [PKP2_Y166_YF]	0.828
ADRNHYRRFRR [YBX1_Y145_P149R_YF]	0.564

Sequence	phosphorylation enrichment
FARNSYVAGQY [G6PD_Y107]	0.516
FSEVRYMKEPY [HIPK4_Y170_V171M]	0.852
FFFDLYGGEKF [PTPN11_Y66_D61Y_YF]	0.923
VYYGSYSCPYG [NKAP_Y104_R106C]	2.87
SSFSRYIMMPN [LEF1_Y114_G113R_YF]	0.738
LGSNTYPFLLT [SAG_Y120]	1.26
DTLLEYLENPK [CYCS_Y68_M66L]	1.45
AKAEICEMRPL [COX10_Y97_Y97C]	0.709
IGEVVYQRAVM [GRIN2A_Y502]	0.869
SFCFRYRCAAR [SUMF1_Y344_YF]	0.772
LTFDEYRNNSQ [ANXA3_Y216_I219N]	0.762
RVLHNYLVWRV [ECEL1_Y400]	2.51
SLVGCYNLTFM [HS6ST3_Y323]	1.42
LKTNCYNNGKD [DNMT3B_Y404]	1.12
TLERHYEELQA [SPTBN2_Y834]	1.04
CTTIHYSFMCN [TP53_Y234_N235S_YF]	1.08

Target: EPHB1 (UniProt P54762)
Test: as above

Sequence of EPHB1 (P54762 whole entry, looked up): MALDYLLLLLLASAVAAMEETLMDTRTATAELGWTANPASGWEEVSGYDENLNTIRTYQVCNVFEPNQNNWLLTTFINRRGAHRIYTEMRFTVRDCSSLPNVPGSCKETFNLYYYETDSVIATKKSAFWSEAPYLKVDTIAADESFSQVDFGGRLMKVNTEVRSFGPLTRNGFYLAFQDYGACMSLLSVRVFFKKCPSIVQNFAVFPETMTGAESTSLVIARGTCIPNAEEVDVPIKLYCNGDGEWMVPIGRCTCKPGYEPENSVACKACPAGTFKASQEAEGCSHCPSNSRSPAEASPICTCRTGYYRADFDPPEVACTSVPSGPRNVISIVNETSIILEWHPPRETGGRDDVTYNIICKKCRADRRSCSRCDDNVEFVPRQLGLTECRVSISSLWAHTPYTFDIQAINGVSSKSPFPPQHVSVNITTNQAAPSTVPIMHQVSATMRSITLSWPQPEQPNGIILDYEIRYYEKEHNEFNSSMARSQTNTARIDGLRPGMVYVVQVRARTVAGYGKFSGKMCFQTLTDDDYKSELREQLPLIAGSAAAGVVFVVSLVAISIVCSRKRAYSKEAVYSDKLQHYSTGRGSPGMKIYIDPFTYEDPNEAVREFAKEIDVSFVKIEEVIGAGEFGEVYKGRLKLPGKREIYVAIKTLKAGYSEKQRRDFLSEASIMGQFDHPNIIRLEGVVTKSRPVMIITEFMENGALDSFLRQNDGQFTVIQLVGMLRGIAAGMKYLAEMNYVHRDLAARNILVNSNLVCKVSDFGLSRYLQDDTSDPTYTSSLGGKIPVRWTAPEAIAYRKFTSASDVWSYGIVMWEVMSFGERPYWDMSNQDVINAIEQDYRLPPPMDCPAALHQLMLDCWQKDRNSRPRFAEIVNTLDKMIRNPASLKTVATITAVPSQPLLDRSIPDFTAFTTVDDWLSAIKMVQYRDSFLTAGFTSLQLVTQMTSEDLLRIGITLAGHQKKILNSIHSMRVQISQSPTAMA

Sequence	phosphorylation enrichment
FDSPFYQDSLP [TSC1_Y508_R509Q]	0.503
HKANEYYPVVL [ADAMTS18_Y764]	1.47
GVMLLYYGRYN [ADGRD1_Y85_T82M]	0.616
SSSNPYSTVTM [ACTN2_Y599]	0.461
AEQEEYSAMRD [NRAS_Y64_G60E]	0.541
GKTQQYECKWF [BCR_Y751_D752E_YF]	0.509
RELGEYALAEF [ALDH1A3_Y492_YF]	0.857
TYGQVYKGPHV [TNIK_Y40_R43P]	0.586
RLGDLYKEEMR [VIM_Y150_E151K]	0.779
EEKKKYYDAKI [CASP5_Y103_T106A]	0.467
PTDSVYVMPTV [MYO7A_Y1668]	1.15
NQDRTYYESVR [SPEN_Y632]	0.569
FSTDCYRVGGH [NTRK2_Y707_Y706C_YF]	0.592
KDQPDYKFQPR [SOX9_Y172_H169Q_YF]	0.348
KSVLVYRNGDP [DCDC2_Y22]	0.431
FTHSDYQFSQR [PKP2_Y166_YF]	0.435
ADRNHYRRFRR [YBX1_Y145_P149R_YF]	0.462

Sequence	phosphorylation enrichment
FARNSYVAGQY [G6PD_Y107]	0.322
FSEVRYMKEPY [HIPK4_Y170_V171M]	0.425
FFFDLYGGEKF [PTPN11_Y66_D61Y_YF]	0.53
VYYGSYSCPYG [NKAP_Y104_R106C]	2.45
SSFSRYIMMPN [LEF1_Y114_G113R_YF]	0.471
LGSNTYPFLLT [SAG_Y120]	0.77
DTLLEYLENPK [CYCS_Y68_M66L]	0.7
AKAEICEMRPL [COX10_Y97_Y97C]	0.469
IGEVVYQRAVM [GRIN2A_Y502]	0.883
SFCFRYRCAAR [SUMF1_Y344_YF]	0.466
LTFDEYRNNSQ [ANXA3_Y216_I219N]	0.431
RVLHNYLVWRV [ECEL1_Y400]	1.6
SLVGCYNLTFM [HS6ST3_Y323]	0.694
LKTNCYNNGKD [DNMT3B_Y404]	1.09
TLERHYEELQA [SPTBN2_Y834]	0.648
CTTIHYSFMCN [TP53_Y234_N235S_YF]	0.568

Target: EPHB2 (UniProt P29323)
Test: as above

Sequence of EPHB2 (P29323 whole entry, looked up): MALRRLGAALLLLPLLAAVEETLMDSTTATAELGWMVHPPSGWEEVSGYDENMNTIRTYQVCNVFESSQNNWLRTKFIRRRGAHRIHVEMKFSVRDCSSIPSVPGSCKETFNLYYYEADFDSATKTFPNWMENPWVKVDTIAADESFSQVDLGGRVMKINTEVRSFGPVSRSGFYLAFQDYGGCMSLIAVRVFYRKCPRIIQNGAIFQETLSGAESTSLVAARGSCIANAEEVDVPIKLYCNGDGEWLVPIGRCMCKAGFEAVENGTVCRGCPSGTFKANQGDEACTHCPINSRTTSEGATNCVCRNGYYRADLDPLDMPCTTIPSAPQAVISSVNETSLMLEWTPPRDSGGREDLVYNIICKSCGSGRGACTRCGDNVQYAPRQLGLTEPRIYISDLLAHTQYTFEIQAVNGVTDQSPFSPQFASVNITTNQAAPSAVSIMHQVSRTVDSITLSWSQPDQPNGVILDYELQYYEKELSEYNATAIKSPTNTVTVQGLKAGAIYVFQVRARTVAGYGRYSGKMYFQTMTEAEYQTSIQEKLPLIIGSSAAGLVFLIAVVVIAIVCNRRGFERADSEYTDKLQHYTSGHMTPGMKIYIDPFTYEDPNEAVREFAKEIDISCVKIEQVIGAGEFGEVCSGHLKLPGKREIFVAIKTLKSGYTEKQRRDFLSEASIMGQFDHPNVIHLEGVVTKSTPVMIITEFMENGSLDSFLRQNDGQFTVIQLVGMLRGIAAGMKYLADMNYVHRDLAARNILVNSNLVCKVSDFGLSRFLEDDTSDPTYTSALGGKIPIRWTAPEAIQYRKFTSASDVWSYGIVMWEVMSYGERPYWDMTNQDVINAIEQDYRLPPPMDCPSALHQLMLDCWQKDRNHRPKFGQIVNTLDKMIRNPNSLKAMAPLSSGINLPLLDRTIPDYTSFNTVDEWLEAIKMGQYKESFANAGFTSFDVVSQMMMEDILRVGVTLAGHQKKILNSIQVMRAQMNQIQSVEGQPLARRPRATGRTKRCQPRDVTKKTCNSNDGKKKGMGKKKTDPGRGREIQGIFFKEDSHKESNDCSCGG

Sequence	phosphorylation enrichment
FDSPFYQDSLP [TSC1_Y508_R509Q]	0.489
HKANEYYPVVL [ADAMTS18_Y764]	1.45
GVMLLYYGRYN [ADGRD1_Y85_T82M]	0.761
SSSNPYSTVTM [ACTN2_Y599]	0.389
AEQEEYSAMRD [NRAS_Y64_G60E]	0.566
GKTQQYECKWF [BCR_Y751_D752E_YF]	0.603
RELGEYALAEF [ALDH1A3_Y492_YF]	0.697
TYGQVYKGPHV [TNIK_Y40_R43P]	0.633
RLGDLYKEEMR [VIM_Y150_E151K]	0.672
EEKKKYYDAKI [CASP5_Y103_T106A]	0.432
PTDSVYVMPTV [MYO7A_Y1668]	0.708
NQDRTYYESVR [SPEN_Y632]	0.661
FSTDCYRVGGH [NTRK2_Y707_Y706C_YF]	0.576
KDQPDYKFQPR [SOX9_Y172_H169Q_YF]	0.402
KSVLVYRNGDP [DCDC2_Y22]	0.401
FTHSDYQFSQR [PKP2_Y166_YF]	0.538
ADRNHYRRFRR [YBX1_Y145_P149R_YF]	0.447

Sequence	phosphorylation enrichment
FARNSYVAGQY [G6PD_Y107]	0.4
FSEVRYMKEPY [HIPK4_Y170_V171M]	0.496
FFFDLYGGEKF [PTPN11_Y66_D61Y_YF]	0.418
VYYGSYSCPYG [NKAP_Y104_R106C]	3.08
SSFSRYIMMPN [LEF1_Y114_G113R_YF]	0.556
LGSNTYPFLLT [SAG_Y120]	0.655
DTLLEYLENPK [CYCS_Y68_M66L]	0.535
AKAEICEMRPL [COX10_Y97_Y97C]	0.516
IGEVVYQRAVM [GRIN2A_Y502]	0.554
SFCFRYRCAAR [SUMF1_Y344_YF]	0.571
LTFDEYRNNSQ [ANXA3_Y216_I219N]	0.682
RVLHNYLVWRV [ECEL1_Y400]	1.12
SLVGCYNLTFM [HS6ST3_Y323]	0.868
LKTNCYNNGKD [DNMT3B_Y404]	0.818
TLERHYEELQA [SPTBN2_Y834]	0.522
CTTIHYSFMCN [TP53_Y234_N235S_YF]	0.572

Target: FGFR1 (UniProt P11362)
Test: as above

Sequence of FGFR1 (P11362 whole entry, looked up): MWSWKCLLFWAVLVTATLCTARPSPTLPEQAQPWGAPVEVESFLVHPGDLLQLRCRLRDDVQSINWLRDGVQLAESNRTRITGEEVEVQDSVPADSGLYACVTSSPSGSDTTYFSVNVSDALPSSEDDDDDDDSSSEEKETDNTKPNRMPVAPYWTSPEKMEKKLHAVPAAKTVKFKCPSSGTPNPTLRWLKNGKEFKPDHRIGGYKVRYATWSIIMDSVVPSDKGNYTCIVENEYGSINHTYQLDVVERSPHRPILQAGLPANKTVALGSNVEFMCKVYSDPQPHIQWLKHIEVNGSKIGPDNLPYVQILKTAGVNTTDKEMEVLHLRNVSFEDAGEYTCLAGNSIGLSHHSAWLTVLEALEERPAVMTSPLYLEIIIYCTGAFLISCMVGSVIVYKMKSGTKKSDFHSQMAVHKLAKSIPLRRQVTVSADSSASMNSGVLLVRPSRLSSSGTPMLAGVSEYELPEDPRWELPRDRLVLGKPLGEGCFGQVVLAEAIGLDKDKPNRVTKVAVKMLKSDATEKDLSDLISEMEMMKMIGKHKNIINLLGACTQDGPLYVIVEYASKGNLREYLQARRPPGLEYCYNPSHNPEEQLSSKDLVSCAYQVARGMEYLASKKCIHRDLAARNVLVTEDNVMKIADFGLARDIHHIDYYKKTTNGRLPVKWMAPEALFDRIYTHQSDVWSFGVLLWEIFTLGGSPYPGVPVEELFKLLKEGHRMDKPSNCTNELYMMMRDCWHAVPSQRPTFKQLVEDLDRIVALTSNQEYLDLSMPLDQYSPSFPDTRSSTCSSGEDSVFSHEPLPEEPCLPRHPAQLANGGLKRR

Sequence	phosphorylation enrichment
FDSPFYQDSLP [TSC1_Y508_R509Q]	0.357
HKANEYYPVVL [ADAMTS18_Y764]	23.2
GVMLLYYGRYN [ADGRD1_Y85_T82M]	0.556
SSSNPYSTVTM [ACTN2_Y599]	0.543
AEQEEYSAMRD [NRAS_Y64_G60E]	0.525
GKTQQYECKWF [BCR_Y751_D752E_YF]	0.545
RELGEYALAEF [ALDH1A3_Y492_YF]	0.725
TYGQVYKGPHV [TNIK_Y40_R43P]	0.534
RLGDLYKEEMR [VIM_Y150_E151K]	0.674
EEKKKYYDAKI [CASP5_Y103_T106A]	0.529
PTDSVYVMPTV [MYO7A_Y1668]	2.32
NQDRTYYESVR [SPEN_Y632]	1.02
FSTDCYRVGGH [NTRK2_Y707_Y706C_YF]	0.599
KDQPDYKFQPR [SOX9_Y172_H169Q_YF]	0.422
KSVLVYRNGDP [DCDC2_Y22]	0.362
FTHSDYQFSQR [PKP2_Y166_YF]	0.458
ADRNHYRRFRR [YBX1_Y145_P149R_YF]	0.509

Sequence	phosphorylation enrichment
FARNSYVAGQY [G6PD_Y107]	0.403
FSEVRYMKEPY [HIPK4_Y170_V171M]	0.485
FFFDLYGGEKF [PTPN11_Y66_D61Y_YF]	0.415
VYYGSYSCPYG [NKAP_Y104_R106C]	4.04
SSFSRYIMMPN [LEF1_Y114_G113R_YF]	0.599
LGSNTYPFLLT [SAG_Y120]	1.11
DTLLEYLENPK [CYCS_Y68_M66L]	0.503
AKAEICEMRPL [COX10_Y97_Y97C]	0.593
IGEVVYQRAVM [GRIN2A_Y502]	0.434
SFCFRYRCAAR [SUMF1_Y344_YF]	0.47
LTFDEYRNNSQ [ANXA3_Y216_I219N]	0.573
RVLHNYLVWRV [ECEL1_Y400]	1.4
SLVGCYNLTFM [HS6ST3_Y323]	0.589
LKTNCYNNGKD [DNMT3B_Y404]	0.685
TLERHYEELQA [SPTBN2_Y834]	0.472
CTTIHYSFMCN [TP53_Y234_N235S_YF]	0.636

From the supplement of paper PMC10065799, “High-throughput profiling of sequence recognition by tyrosine kinases and SH2 domains using bacterial peptide display” (eLife, 2023)
